Paper doi:10.1101/2021.01.14.426755 (bioRxiv, 2021)

Target: T1, Tfb2 (yeast (endogenous, purified from yeast), UniProt Q02939 1-513)
T1 sequence: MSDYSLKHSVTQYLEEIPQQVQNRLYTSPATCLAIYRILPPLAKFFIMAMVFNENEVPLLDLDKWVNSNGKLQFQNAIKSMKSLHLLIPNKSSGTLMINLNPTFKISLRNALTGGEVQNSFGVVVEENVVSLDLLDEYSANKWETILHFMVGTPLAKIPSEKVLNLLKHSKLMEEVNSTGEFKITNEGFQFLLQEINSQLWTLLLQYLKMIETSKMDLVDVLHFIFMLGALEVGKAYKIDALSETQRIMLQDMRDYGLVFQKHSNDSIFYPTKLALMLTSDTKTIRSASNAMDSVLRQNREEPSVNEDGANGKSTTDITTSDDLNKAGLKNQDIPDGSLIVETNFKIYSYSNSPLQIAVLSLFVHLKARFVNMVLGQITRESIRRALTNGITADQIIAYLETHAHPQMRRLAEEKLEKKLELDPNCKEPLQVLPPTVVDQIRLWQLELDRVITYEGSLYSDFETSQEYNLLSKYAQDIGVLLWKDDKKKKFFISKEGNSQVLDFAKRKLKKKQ
Test: cryo-EM structure

B1: Tfb5 (natural protein)
chain: MARARKGALVQCDPSIKALILQIDAKMSDIVLEELDDTHLLVNPSKVEFVKHELNRLLSKNIYNPMDEEENQ
B1: binds.
